This note sets out measurements from publication PMC10643153.

Test [1] has as its target recombinant goldfish AdipoQ (His-tagged gAdipoQ) (goldfish (Carassius auratus)). Briefly: native gel or EMSA; self-association; protein electrophoresis in native gel under non-denaturing conditions, Coomassie blue staining; parallel SDS-PAGE as reference for the monomer. In general terms: Mobility shift assays separate free from complexed probe on a gel.
The target is the same in test [2]. Kind of test: SEC-MALS; self-association; top five fractions of the SEC peak pooled, 200-µl sample on a Superose 12 10/300 GL column linked with a DynaPro NanoStar instrument; apparent MW in solution. A general note: In gel filtration, larger molecules generally elute earlier.

Values joined by “and” are separate entries in the source; they are usually repeats but may differ in a detail not shown here. Equal values may be shown once.

As a reminder, the stoichiometry N is a count of units in the complex or per binding partner.

As for “recombinant goldfish AdipoQ (His-tagged gAdipoQ) (domain or fragment)”, the stoichiometry N is 3 and 6 in test [1]; 3 in test [2].
